Test results: patent publication US20240226039A1, “IMMUNE CHECKPOINT INHIBITOR AND HDAC INHIBITOR COMBINATION THERAPY STRATEGY” (H. Lee Moffitt Cancer Center and Research Institute, Inc., priority 2021, published 2024)

Tests used:
[1] = set-up: species or system human; settings: in vivo
Method: Key inclusion criteria: Histologically confirmed mNSCLCm Treatment naïve, and PD-L1 expression≥1% are eligible. Key exclusion criteria: Untreated, progressive, or symptomatic brain metastases, Active uncontrolled autoimmune disorders, and Systemic steroid use equivalent to >10 mg prednisone. […] The primary endpoint was overall response rate (ORR). Additional endpoints included correlative analyses, DOR, PFS and OS. The trial used a Simon Mini-Max two-stage design with interim analysis planned after the first stage when 23 patients were enrolled in each arm.

[2] = tested on: metastatic NSCLC (mNSCLC); experiment: Phase II randomized trial, best response / ORR; type: in vivo, human
Method: Key exclusion criteria: Untreated, progressive, or symptomatic brain metastases, Active uncontrolled autoimmune disorders, and Systemic steroid use equivalent to >10 mg prednisone. […] The primary endpoint was overall response rate (ORR). Additional endpoints included correlative analyses, DOR, PFS and OS. The trial used a Simon Mini-Max two-stage design with interim analysis planned after the first stage when 23 patients were enrolled in each arm.

CD8+ T cells = experiment: IHC of CD8+ TIL in pre- and on-treatment core biopsies; type: in vivo, human; settings: biopsy cycle 1 days 15-21; p=0.001 Arm A, p=0.002 Arm B
Method: IHC was performed to determine presence of CD8+ T cells and CD33+ myeloid cells. Biopsies were scored using a 0-3 scale separately in the tumor stroma and tumor beds.

pembrolizumab [Arm A]
Pneumonitis Total [1]: 1 (4%) | Pruritis Gr 2 [1]: 0 | Pruritis Gr 3 [1]: 0 | Pruritis Gr 4 [1]: 0 | QT prolongation Gr 1 [1]: 0 | QT prolongation Gr 2 [1]: 0 | QT prolongation Gr 3 [1]: 0 | QT prolongation Gr 4 [1]: 0 | QT prolongation Total [1]: 0 | Rash maculo-papular Gr 1 [1]: 0 | Rash maculo-papular Gr 2 [1]: 0 | Rash maculo-papular Gr 3 [1]: 1 (4%) | Rash maculo-papular Gr 4 [1]: 0 | Rash maculo-papular Total [1]: 1 (4%) | Thromboembolic event Gr 1 [1]: 0 | Thromboembolic event Gr 2 [1]: 0 | Thromboembolic event Gr 3 [1]: 0 | Thromboembolic event Gr 4 [1]: 0 | Thromboembolic event Total [1]: 0 | Total AEs Gr 1 [1]: 8 | Total AEs Gr 2 [1]: 6 | Total AEs Gr 3 [1]: 6 | Total AEs Gr 4 [1]: 0 | Total AEs Total [1]: 20 | Total irAEs Gr 1 [1]: 4 | Total irAEs Gr 2 [1]: 2 | Total irAEs Gr 3 [1]: 3 | Total irAEs Gr 4 [1]: 0 | Total irAEs Total [1]: 9 | Vomiting Gr 1 [1]: 0 | Vomiting Gr 2 [1]: 0 | Vomiting Gr 3 [1]: 0 | Vomiting Gr 4 [1]: 0 | Vomiting Total [1]: 0 | irAE AST increased Gr 1 [1]: 0 | irAE AST increased Gr 2 [1]: 0 | irAE AST increased Gr 3 [1]: 0 | irAE AST increased Gr 4 [1]: 0 | irAE AST increased Total [1]: 0 | irAE Adrenal insufficiency Gr 1 [1]: 0 | irAE Adrenal insufficiency Gr 2 [1]: 1 (4%) | irAE Adrenal insufficiency Gr 3 [1]: 0 | irAE Adrenal insufficiency Gr 4 [1]: 0 | irAE Adrenal insufficiency Total [1]: 1 (4%) | irAE Arthralgia Gr 1 [1]: 0 | irAE Arthralgia Gr 2 [1]: 0 | irAE Arthralgia Gr 3 [1]: 0 | irAE Arthralgia Gr 4 [1]: 0 | irAE Arthralgia Total [1]: 0 | irAE Brachial plexopathy Gr 1 [1]: 0 | irAE Brachial plexopathy Gr 2 [1]: 0 | irAE Brachial plexopathy Gr 3 [1]: 0 | irAE Brachial plexopathy Gr 4 [1]: 0 | irAE Brachial plexopathy Total [1]: 0 | irAE Colitis Gr 1 [1]: 0 | irAE Colitis Gr 2 [1]: 1 (4%) | irAE Colitis Gr 3 [1]: 0 | irAE Colitis Gr 4 [1]: 0 | irAE Colitis Total [1]: 1 (4%) | irAE Hepatitis Gr 1 [1]: 0 | irAE Hepatitis Gr 2 [1]: 0 | irAE Hepatitis Gr 3 [1]: 1 (4%) | irAE Hepatitis Gr 4 [1]: 0 | irAE Hepatitis Total [1]: 1 (4%) | irAE Hypothyroidism Gr 1 [1]: 0 | irAE Hypothyroidism Gr 2 [1]: 0 | irAE Hypothyroidism Gr 3 [1]: 0 | irAE Hypothyroidism Gr 4 [1]: 0 | irAE Hypothyroidism Total [1]: 0 | irAE Pancreatic atrophy Gr 1 [1]: 0 | irAE Pancreatic atrophy Gr 2 [1]: 0 | irAE Pancreatic atrophy Gr 3 [1]: 0 | irAE Pancreatic atrophy Gr 4 [1]: 0 | irAE Pancreatic atrophy Total [1]: 0 | irAE Pericardial effusion Gr 1 [1]: 0 | irAE Pericardial effusion Gr 2 [1]: 0 | irAE Pericardial effusion Gr 3 [1]: 0 | irAE Pericardial effusion Gr 4 [1]: 0 | irAE Pericardial effusion Total [1]: 0 | irAE Pneumonitis Gr 1 [1]: 0 | irAE Pneumonitis Gr 2 [1]: 0 | irAE Pneumonitis Gr 3 [1]: 1 (4%) | irAE Pneumonitis Gr 4 [1]: 0 | irAE Pneumonitis Total [1]: 1 (4%) | irAE Rash/pruritis/dry skin Gr 1 [1]: 4 (17%) | irAE Rash/pruritis/dry skin Gr 2 [1]: 0 | irAE Rash/pruritis/dry skin Gr 3 [1]: 1 (4%) | irAE Rash/pruritis/dry skin Gr 4 [1]: 0 | irAE Rash/pruritis/dry skin Total [1]: 5 (21%) | treatment discontinued due to toxicity, number of patients [1]: 2 patients | treatment discontinued due to toxicity, share of patients [1]: 8% | disease control rate, interim analysis ([2]; immunotherapy naive patients, p=0.024): 58% | PRs, interim analysis ([2]; immunotherapy naive patients, p=0.026): 25% | ORR in pts with low pre-treatment tumor bed TIL (score=1) ([2]; in vivo): 33.3% | Best Response: Progressive Disease ([2]; patients n (%), first-line mNSCLC): 10 (42%) | Disease Control Rate ([2]; patients n (%), first-line mNSCLC, p = 0.024 between arms): 14 (58%) | Best Response: Partial Response ([2]; patients n (%), first-line mNSCLC, p = 0.026 between arms): 6 (25%) | change from pre-treatment to on-treatment CD8+ TIL scores (CD8+ T cells): significant increase
